Data published in US12578329B2, “Reagent kit containing polypeptide for use in detection of intermolecular interactions” (SHIMADZU CORPORATION, priority 2021, dated 2026).
“Also recorded” adds a separate entry of the source.

What was measured:
[1] = GLuc: when secretion expressed from cells; cited from earlier work
[2] = Emission value of secretion-expressed luciferase in COS-7 culture medium, coelenterazine h substrate; assay type: biochemical; details: Experiment 5
Procedure: (§1) • (1) COS-7 cells derived from the kidney of African green monkey were inoculated in a 24-well dish, and on the next day, subconfluency was attained. • (2) 25 μL of Opti-MEM (Thermo Fisher Scientific™), 400 ng (2 μL) of the plasmid, and 1 μL of P3000 (Invitrogen™, Waltham, MA) were mixed. • (3) 25 μL of Opti-MEM and 1 μL of lipofectoamine 3000 (Invitrogen™) were mixed. • (4) (2) and (3) were mixed together, followed by incubation at room temperature for 5 minutes. • (5) The mixture was added to the medium of (1). • (6) 500 μL of Dulbecco's modified Eagle's medium was added, followed by culturing the cells at 37° C. for 1 day and then collecting the medium. The medium contained secretion-expressed luciferase. • (7) To 100 μL of the medium, coelenterazine was added as a substrate at a final concentration of 5 μM, followed by measuring the emission value by using Enspire multi-mode plate reader (PerkinElmer™, Waltham, MA).
The emission value was measured in the same manner as in Experiment 2 except that coelenterazine h was used as a substrate in a final concentration of 5 μM. […] The emission value was measured in the same manner as in Experiment 2 except that coelenterazine h was used as a substrate in a final concentration of 25 μM.

[3] = Emission value of secretion-expressed luciferase in COS-7 culture medium, coelenterazine substrate; assay type: biochemical; details: Experiment 5
Procedure: as §1
By the same manner as in Experiment 2, the emission value was measured.
The emission value was measured in the same manner as in Experiment 2 except that the final concentration of coelenterazine was changed to 0.5 μM. […] The emission value was measured in the same manner as in Experiment 2 except that the final concentration of coelenterazine was changed to 5 μM.

[4] = Emission value of secretion-expressed luciferase in COS-7 culture medium, furimazine substrate; assay type: biochemical; details: Experiment 5; furimazine in the concentration recommended by the manufacturer
Procedure: as §1
The emission value was measured in the same manner as in Experiment 2 except that furimazine, which was available from Promega™ as a NanoLuc® substrate, was used as a substrate in the concentration recommended by the manufacturer.

[5] = Stability of protein terminus: Western blot detection of Flag-tag and His-tag in culture supernatant; details: secretion-expressed luciferase in COS-7 culture supernatant; Western blotting
Text: In the same manner as in Experiment 2, the plasmid was transfected into COS-7 cells and culture supernatant was collected. Flag-tag added to the N terminus of each secretion-expressed luciferase and His-tag added to the C terminus thereof were detected by Western blotting (SDS-PAGE, Mini-PROTEAN TGX Gel StainFree 4-15% (Bio-Rad™, Hercules, CA)) (FIG. 17). The antibodies used were Anti 6×Histidine, Monoclonal Antibody (9C11), Peroxidase Conjugated (manufactured by FUJIFILM Wako Pure Chemical Corporation, 1:1000) and Monoclonal ANTI-FLAG (R) M2-Peroxidase (HRP) antibody produced in mouse, clone M2 (manufactured by Sigma-Aldrich™, St. Louis, MO, 1/1000), respectively, and detection was performed with Amesham Imager 680 (Cytiva™, Marlborough, MA).

[6] = Measurement of specific activity (enzyme concentrations adjusted by Western blot signal); assay type: biochemical
Procedure: The specific activities of NanoLuc®, ALuc30 wt, and picALuc30 were measured, with their enzyme concentrations adjusted based on the Western blot signal intensity obtained in Experiment 6.

[7] = Emission activity of divided enzyme (Escherichia coli lysates, single or mixed); assay type: biochemical; details: Experiment 11-2, coelenterazine 5 μM, Enspire multi-mode plate reader
Text: picALuc30 was divided to prepare plasmids (pET32 vectors) for expression of polypeptides from position 4 to 22, from position 23 to 120, from position 4 to 47, from position 48 to 120, from position 4 to 77, from position 80 to 120, from position 4 to 90, and from position 91 to 120 of the amino acid sequence in SEQ ID NO: 51. In the same manner as in Experiment 10, the plasmid was introduced into Escherichia coli SHuffle T7 Express lysY, and from the cultured bacterial cells, a lysate was obtained. To 100 μL of a single lysate or a mixture of lysates as specified in FIG. 25, coelenterazine was added as a substrate at a final concentration of 5 μM, followed by measuring the emission value by using an Infinite (registered trademark) 200 PRO plate reader (TECAN). Because the lysate contained luciferase fragments at high concentrations, it was expected that when fragment-containing lysates were mixed, two types of fragments were highly likely to encounter each other and these two fragments could form the original luciferase structure.
picALuc30 was divided to further prepare plasmids (pET32 vectors) for expression of polypeptides from position 4 to 58, from position 4 to 64, from position 4 to 72, from position 65 to 120, from position 73 to 120, and from position 104 to 120 of the amino acid sequence in SEQ ID NO: 51. In Experiment 11-2, emission values were measured in the same manner as in Experiment 11-1 except that an Enspire multi-mode plate reader (PerkinElmer™) was used for emission value detection.

Row | Molecule | emission value (known) [1] | emission values (rank order) ([2]; coelenterazine h 5 μM) | emission values (rank order) ([2]; coelenterazine h 25 μM) | emission values (rank order) ([3]; coelenterazine 0.5 μM) | emission values (rank order) ([3]; coelenterazine 5 μM) | emission value [4] | stability of protein termini (Flag-tag and His-tag detection) [5] | maximum emission value ([6]; Experiment 7) | specific activity ([6]; coelenterazine or coelenterazine h as substrate) | emission value [7]
1 | NanoLuc®: known luciferase, about 19 kDa; SEQ ID NO: 73 (protein, oplophorus gracilirostris) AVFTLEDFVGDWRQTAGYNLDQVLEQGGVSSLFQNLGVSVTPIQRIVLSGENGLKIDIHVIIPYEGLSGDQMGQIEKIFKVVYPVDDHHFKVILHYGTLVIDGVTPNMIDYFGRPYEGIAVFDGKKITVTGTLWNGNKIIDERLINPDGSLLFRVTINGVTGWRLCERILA | very high | TurboLuc™=ALuc30 wt>>NanoLuc®>picALuc30>GLuc | picALuc30>>NanoLuc®=TurboLuc™=ALuc30 wt>>GLuc | NanoLuc®>>picALuc30>TurboLuc™>ALuc30 wt>GLuc | ALuc30 wt=picALuc30>NanoLuc®>TurboLuc™>GLuc | high emission values; also recorded: the same as when coelenterazine or coelenterazine h was used | – | – | – | –
2 | TurboLuc™: known luciferase, about 16 kDa; SEQ ID NO: 74 (protein, listed as Metrisia longa) MEAEAERGKLPGKKLPLEVLIELEANARKAGCTRGCLICLSKIKCTAKMKKYIPGRCADYGGDKKTGQAGIVGAIVDIPEISGFKEMEPMEQFIAQVDRCADCTTGCLKGLANVKCSDLLKKWLPGRCATFADKIQSEVDNIKGLAGD | relatively high | TurboLuc™=ALuc30 wt>>NanoLuc®>picALuc30>GLuc | picALuc30>>NanoLuc®=TurboLuc™=ALuc30 wt>>GLuc | NanoLuc®>>picALuc30>TurboLuc™>ALuc30 wt>GLuc | ALuc30 wt=picALuc30>NanoLuc®>TurboLuc™>GLuc | high emission values | N terminus was lost | – | – | –
3 | ALuc30 wt: artificial luciferase; positions 20 to 212 of ALuc30 (SEQ ID NO: 28) without a signal sequence; about 21 kDa (protein, ALuc30, artificial luciferase; about 21 kDa) HHHHHHHHDIVGVEGKFGTTDLETDLFTIVEDMNVISRDTDVDANRADRGRRGKLPGKKLPLEVLKELEANAQKAGCTRGCLICLSHIKCTAKMKKWLPGRCESWEGDKETGQGGIGEAIVDIPEIPGFKELAPMEQFIAQVDLCADCTTGCLKGLANVKCSALLKKWLPSRCAGFADKIQAQVDTIKGAGGS | – | TurboLuc™=ALuc30 wt>>NanoLuc®>picALuc30>GLuc | picALuc30>>NanoLuc®=TurboLuc™=ALuc30 wt>>GLuc | NanoLuc®>>picALuc30>TurboLuc™>ALuc30 wt>GLuc | ALuc30 wt=picALuc30>NanoLuc®>TurboLuc™>GLuc | low as compared to NanoLuc® and TurboLuc™ | both termini remaining | same maximum emission value as NanoLuc® | the same as the specific activity of picALuc | –
4 | position 4 to 72 and position 23 to 120: combination of polypeptides of these positions of SEQ ID NO: 51 (SEQ ID NOs: 80 and 81) (protein, part of picALuc30) chain 1: GKKLPLEVLKELEANAQKAGCTRGCLICLSHIKCTAKMKKWLPGRCESWEGDKETGQGGIGEAIVDIPE chain 2: GCTRGCLICLSHIKCTAKMKKWLPGRCESWEGDKETGQGGIGEAIVDIPEIPGFKELAPMEQFIAQVDLCADCTTGCLKGLANVKCSALLKKWLPSRC | – | – | – | – | – | – | – | – | – | high emission value
5 | position 4 to 72 and position 104 to 120: combination of polypeptides of these positions of SEQ ID NO: 51 (SEQ ID NOs: 80 and 85) (protein, part of picALuc30) chain 1: GKKLPLEVLKELEANAQKAGCTRGCLICLSHIKCTAKMKKWLPGRCESWEGDKETGQGGIGEAIVDIPE chain 2: ANVKCSALLKKWLPSRC | – | – | – | – | – | – | – | – | – | high emission value
